# Laboratory results as given in patent US11673916B2, “Neuroprotective peptides and methods of their use” (University of Pittsburgh—Of the Commonwealth System of …, priority 2020, dated 2023).
# Molecular target: T1, Kv2.1 surface clusters (Rattus norvegicus, UniProt P15387)
# T1 construct: expressed in transfected cells; host or cells: primary rat cortical neurons (E16-17 Sprague-Dawley), Lipofectamine 2000
# T1 sequence (P15387 1-857): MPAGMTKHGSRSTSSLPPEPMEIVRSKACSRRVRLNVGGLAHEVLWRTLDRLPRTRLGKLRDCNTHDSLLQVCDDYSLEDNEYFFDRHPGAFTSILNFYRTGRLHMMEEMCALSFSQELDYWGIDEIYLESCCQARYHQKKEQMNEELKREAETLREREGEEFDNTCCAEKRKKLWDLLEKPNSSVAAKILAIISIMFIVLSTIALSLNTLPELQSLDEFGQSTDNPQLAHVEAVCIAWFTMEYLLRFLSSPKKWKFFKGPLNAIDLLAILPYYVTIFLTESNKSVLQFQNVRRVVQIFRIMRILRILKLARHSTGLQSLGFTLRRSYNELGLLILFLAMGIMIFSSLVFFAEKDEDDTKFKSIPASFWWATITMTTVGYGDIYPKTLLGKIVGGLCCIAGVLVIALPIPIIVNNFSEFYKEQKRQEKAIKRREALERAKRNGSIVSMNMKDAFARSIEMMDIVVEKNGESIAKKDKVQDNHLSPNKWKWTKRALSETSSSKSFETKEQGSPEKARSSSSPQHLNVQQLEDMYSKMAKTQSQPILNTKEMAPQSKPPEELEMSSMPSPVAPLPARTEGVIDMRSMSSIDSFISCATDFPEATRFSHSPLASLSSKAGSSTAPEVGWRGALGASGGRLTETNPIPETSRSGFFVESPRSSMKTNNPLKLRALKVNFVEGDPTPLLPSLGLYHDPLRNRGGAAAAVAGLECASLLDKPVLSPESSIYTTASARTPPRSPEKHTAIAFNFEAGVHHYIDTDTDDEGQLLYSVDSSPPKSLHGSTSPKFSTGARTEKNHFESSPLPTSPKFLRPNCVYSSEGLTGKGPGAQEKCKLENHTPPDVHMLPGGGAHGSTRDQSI
# Assay: Kv2.1 surface cluster density in live cortical neurons co-transfected with Kv2.1-GFP and peptide-expressing plasmids
# Format: cell-based
# Details: plasmid-driven expression, 24 h after transfection, mean+/-SEM (FIG. 1C)
# Procedure: In vitro experiments utilized primary cortical neuronal cultures prepared from embryonic day 16-17 Sprague-Dawley rats of either sex in a protocol described previously (McCord et al., J Physiol (Lond). 592: 3511-3521, 2014). Timed-pregnant rats (Charles River Laboratories, Wilmington, Mass.) were sacrificed by CO2 inhalation. Embryonic cortices were dissociated with trypsin (0.6 mg/mL) and cells plated in sterile 6-well plates on poly-L-ornithine-coated glass coverslips at a density of 670,000 cells per well. Cytosine arabinoside (1-2 μM) was utilized to inhibit non-neuronal proliferation on day 14 in vitro (DIV); cultures were utilized at 21-25 DIV.
# Transfections were performed with Lipofectamine 2000 (L2K; Invitrogen, Carlsbad, Calif.). Cortical neuronal cultures on glass coverslips were placed into wells containing 500 μL of Dulbecco's minimum essential medium with 2% HyClone bovine serum (D2C; Thermo Fisher Scientific, Waltham, Mass.). A mixture of 1.5 μg of total cDNA and 2 μL of L2K was prepared in 100 μL of Opti-MEM I (Life Technologies Corp., Grand Island, N.Y.) for each well and added. […]
# To analyze Kv2.1 distribution in live primary cortical neurons, cells were transfected with both a tdTomato construct and a GFP-tagged Kv2.1 construct (O'Connell, et al., J Neurosci. 26: 9609-9618, 2006) and imaged on a Nikon A1+ confocal microscope (Nikon, Tokyo, Japan). […] For live images of transfected neurons, object count parameters were customized to define a Kv2.1 cluster as an area of high intensity GFP fluorescence (compared to background), measuring 0.05 μm^2 or larger (Schulien et al., J Physiol (Lond). 594: 2647-2659, 2016). Kv2.1 cluster density was calculated by normalizing the number of Kv2.1 clusters counted to the somatic area of each neuron (#Kv2.1 clusters/μm^2). […] In each neuron analyzed, two populations on Kv2.1-GFP expression were first noted—(a) highly localized signals of clustered Kv2.1 channels, and (b) diffuse background staining that represents freely-dispersed, conducting Kv2.1 channels on the plasma membrane. […]
row,Substance,mean Kv2.1 surface cluster density
1,Kv2.2 CT: Kv2.2 channel C-terminal peptide expressed from plasmid pCMV-Kv2.2CT (EVIVDMKSTSSIDSFTSCATDFTETE),0.07±0.01 #Kv2.1 clusters/μm^2 of neuronal soma
2,"MKSTSDFSSIST [Sc-1, plasmid expressed scrambled control of DP-1 (pCMV-Sc-1)]",0.14±0.03 #Kv2.1 clusters/μm^2 of neuronal soma
3,"MKSTSSIDSFTS [DP-1, plasmid expressed expanded declustering peptide (pCMV-DP-1)]",0.04±0.01 #Kv2.1 clusters/μm^2 of neuronal soma
